Reference: the domain aggregation screens of Martell et al. (2025)

Experiment: soluble fraction after stress (log2 fold change); higher = more stays soluble; pooled small domains, quantitative proteomics
Settings: stress: pH 4
Outline: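 Following acid stress at pH 4, the amount of each small protein domain still soluble was measured in pooled custom libraries by high-throughput quantitative proteomics. Its fold change, on a log2 scale, is higher when more of the domain stayed soluble. This fold change is taken as a measure of aggregation propensity.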

Sequence	soluble fraction (log2)
HMNQYALTDREKNVLGLLVDGLSYKMIADKENISFHTVNAHVRKIYEKLHVHSLAEAVSKALKENL	0.056
HMDYDDLVPLDARGRLRLDGQDIILAFGRHRGRSIEEVHNHDKSYFDWLVSPAGGLEDEVIATLRERF	-1.4
HMALPASLSPREREIVSLISQGKTNSEIASLLYISVPTVKTHISNIFQKTGVSNRTSLLNRLRMS	-0.0542
HMKSLLTHAEEFVRNNNGRWMLAETSSKESYSSKQNFYLRNNYSIISEIRDFYSVGDNLLVFGKFFT	-0.242
HMSEISAEAGKRIRYFRKSRSMTLEELAAVIHKSKATLSKYETGEISIDLDTLYDLAVALQVRAEQLLPAS	-0.764
HMKISDTITEKILTDNNFSMELAKKIGIQQGSLLSSIRRNRDSRILRLWEAVMFYKEQGYTEEEIFTDY	-0.864
HMEDVSTLAVKQRIDDLVKQENPAKPLSDSDIVARLKTDGIYIARRTVAKYRMELNIPSSSARKRAQQFS	0.266
HMVEDPADNQKAADAVIKKISEIGEVTESSENLIKEARASYDALTDNQKELVTNYDVLVQAEAQLENIKD	-0.703
HMVERRVRFTVAPGNAGLRLDLFLTAREIGLSRTQVGRAVDEGQIQVNGRPGRAGRKLKTGDVVAIVLPA	-0.0969
HMPQTDDSEPLGKYGRMRLAYLKNQRPVLYNQMLLNGTLWPHLQDVQKTAYEWLERTMTTLLDK	-0.581
HMRVDYKTQLQELLQRQGAAAPQYRLLVEEGPAHLRRFQVGVYFQGRLLGTGWGRNKKEAEQEAARQALMP	0.186
HMDEWDDGDKPKLKITLYADDDYYFASGFSKSSVSLSGSDGTVTSVSRSSSDTLIVYVTLDALD	-0.845
HMQYKVMDVTVDGNPVIEFQNLNSKIKWIENNPDAIIQNIKTSSFEADQKRIVGTSRGPFWIVIKPDF	-0.299
HMQEVKVRLKPDYLGEVLIKVISDKGELKAELFVSNSQVRSLLRAYAVEFQNQIRDQGYNFSEINVYR	-0.518
HMSSANIKLDPLERQATQQIINNIKRKYPNATIENLQEVANDAIATMRQPEFSNYTVDKFVSYFLSM	-0.429
HMKFNRPMSEILQEWENKLGTTSDAELAGLIGVVTMTINRWRKNETKPDLSALNRYDRIVNLVVNNIKQL	-0.321
HMGSFFSKATAPVRTTGGDGLYKHGSIWFNTSTGRLFVYIPDDRYTGLLDTHNGDIGYWVDVS	-1.22
HMTITIGNSDGGYMKMGADGFEVRFSGSDGGNHYAKMYYNNDGWARLTLGSYGEEKARIDSDGMIQTR	0.208
HMGVLDFSAQLLKHLEMNGGQTPLGDKSPAEEIYAVFGVSKKVFKKAVGDLYRKRLIEISSNGIRMTS	0.336
HMDYKLDVNFPEMYLEQIPAEKRAALIQILEQDPRPSYQKDPVRIYGMSYAGMEIHFRVDKETLYVTEVER	-0.0453
HMGETPEILRDWEAAQNAVNDMLSKYAPGGYMGKIIYPLLTPLKERLEAGERTPDLYNAIVEAT	-0.763
HMNIGEKIKTLRENNNISIEELAEKINDSIENILKYENNELEPTLDKKLALSIALGVTLSDLS	-0.975
HMNAAYDEELDFIFSLSEKGKWEEAEAEIGLLLQKHPEDATLQRIGEWVTTQKILLRQQAVEDRIRS	-0.679
HMVSLNKTEFIAVKKASASELRDKINSLGLDVLKDATISADARTNQIIATGPKYALEQIKMLVVGLDVSS	0.313
HMEGFKSVYFLTTPSGAEISDRSVGDIISKTPSLVSAQEGTEFEFNLKGYQPSFYMINKRSPDRVFVELIP	-0.575
HMTSSQLNIEELERRMMMHLEQNGFITRSIYTNLTGRLKWKATEDLKIFVEKGLIRKMGRGNQMYYVKVE	-0.895

Sequence	soluble fraction (log2)
HMVLGDQTFQSASAPKVFFGGDAAYGPKNIITAVAHGHDAAVSIDRFLHGEDVSKRPGPQVNLVS	0.207
HMNYEFLEKIGFSSNEAKVYGTLIKHKVLNGYEIAKLSGVARSLVYEVINRLVAKGAVIRIDGEPNFYKP	-0.236
HMSNAIDDAVEKVISENLDLAKERGLQSMGPLMGLVMKELGGTADGKAVSEALRRKISEISD	0.114
HMPKMISPAQIKAIGAKTNNIAKASGVEQAQVYQSAVAHLGINNKSTKELTSQEASKVIEYLSTL	0.158
HMERVNILEKATKDIPNVEVKAFEGLSVNFARENHAQVIVRGLRAVTDFEYELQMAQTNRVLAPDVDTVF	0.317
HMDNNNQAAFMGALNSLKEYAKVNGNIVTKQDVESYFKDLGLDDSKYQMITGYLLANDITVKG	-0.0847
HMKLVELVGSPKQIAWAEDIRKNMISYLSALVRKYEAENRPARAEKRAKDMEILSNIKEASWFIENRS	0.155
HMEISAIIGNNLQQLRKEQGLSLDQLALKTGVSKAVLSQLENGKANPTINTIWKIATALHVTYSALLEPP	-0.347
HMAGTAFPVRIMLKGIDRIGLLNEITGYISVAMGVNMRKLNLSTEDGIFEGYIDMLVHDRTVLESMIDNL	0.22
HMDDHLSFLAARLPDGASFDTDFDALGIDSFGMIALRAEVEERLGEQIADSDWTKVERPSEILAMLERK	-1.76
HMDSFEEGTYRKNQRGFGFVKIENQEDEIFISKENSLNALNGDRVIVEIIEDKDRTKRAEGKIKKILKHE	-0.086
HMETALYVEDLDRAVRFYESVMGLNTMSRGVRLVALDAGEGTVLLLFLRGATTSGASFEGGWIPPH	-0.257
HMEKIDEDIMDVLKKKAEVSGISLGVLKSIYEKAVKQYKLGHEIGQVKEQYAMQKVNTHLLENK	0.169
HMDINVDILPLLKTMTDTLRKVIELDIPFLKDARVQRVNSLDELLLRADITTAEKFRKVFEAYQIEADFGK	-1.05
HMNEISLKEITIEEDHPWRDKKIKELDLKEHILVAMIRRKDQDIIPNGETKIYKDDILVIYD	-1.73
HMNILAPFWERFGLSAFAAGNYDRAEGYFRKLEQKDPNSMSVLRNLGLILMAKGDAEGAEAYLLREEKL	-0.643
HMYRYTTFKVKEADTLLPFIQKSLNGISHNRAKAILTGGGVLVDKKITRAYDFALRPGMTVEISKSKP	≥ 0.43
HMTQPAEINRLVEQMGSSDYKSRQEAYERLHQMGPGILDLIYPYRNHADPEIQTRVRELILSYRW	-0.547
HMGSFGAMLKRNRKLAGLTQEQLAEKLDVSTVAVQNWESGKNQIRSEKLTKLSYLFNIPLETLIHEMLIS	0.0247
HMEPALYRLFMAHPELNASAVARRLGIAQSLLAQYISGSKKPSPERERMILTEIHKIGEELATAS	0.102
HMDKESQTMFRLLTGVSGVGPKVGLAILSVLSPDRVVLAISAGDHKAFTAASGVGPKLGQRIVLELKDKVG	-0.557
HMSDVTPDVVRALRKRLKLTQVQFGEIFGMTSKKVSAWEHGKAEPTEEQKQKIQSLLKENNEQ	0.141
HMAEKVIVVADSITVGELAEKLNLPVTNLIGELFKNGIVSTINQRIDFETASIIVEELGLDVELERK	-0.96
HMAPEQWYVLTSGQLPKGPYRLRHIVAMSKGDNWLVARKGAEQWTPLRHLPEFRQAQEANEYIQAIS	-0.122
HMKLELSNDFYNKIRLARKENGLTQEDLAEKLNMKVGVIQKIENGVRQTDSNLMKISKFLGVEIYVE	-0.303
HMGAAAQLLHAVVLRVPAEDTMKFVSETPELRRYLGAPLGPTAALVRPGQEQELAAALQAHGILVEFDE	0.12

Sequence	soluble fraction (log2)
HMKDHLRFEILSFAGDLRNGVVKTRQEFETIFAFYDKYEEIITALKVHNGYVDSEFDFIKEKFKELKSK	0.194
HMFDEDKLIISIGSKVRIIREPYFGTIGKVVELPPELVKMDTEAMLRVAIIKLDDGEKVTIPRANLEVILS	-0.87
HMNNIPFIITDERLNVIQSHLVPREVLDHPDRLRRQIDRFTEENQPKTVNYWWGPEHRHIIFYGKSK	0.281
HMGLAALLQSGPVAGTVLSHQPGGKVVIAFQGQAYPLNLKGRTLQPGQSVLARMAGEQISLEVI	-0.0159
HMNWQLITDPKELRELVQKTIADNEAGTSRLREGDMGPLEFLTGIIMKKTRGLADPTMVKALLKEELNI	0.0177
HMAATHYEGIKQDGETDDAVIERVLTGLSVTANKDDIFIVKTLIAGTKYSYTAYVYNGNAWAAM	-0.255
HMTVDHDERRSMILEAFMRLAAREGLHAVSLRGVAAEAGISLRLVQYYFETKARLMQSGLTALET	-0.501
HMTSTEQQIEQFIGTLVSLGGSAGNQRLLEALGWQDSIYQRVKQQLIDDGRIRPGRGRGGSVVLAE	-0.302
HMSMANKKDFILDTAQKLFMEQGFDQTSISQILEATQIARGTLYYYFSSKEEIMDAIIERTIEQ	-1.81
HMSYTDIILKMSNVNFLTKVNFTNSEKNKNIKNGNFLIKKGKNRITAAFDYKDNELVISKSNLRNTFL	-1.22
HMEQLNKNIKFDNFLESLNFINKVSEVAEEENHHPDLKFGWGYADITIFTHAIKGLSEGDFVLAAKIDVI	-0.295
HMEGLESVVPDLRGKSLKSAAIAAGLSGFALSPEGSGIVYKQSPAPGGRYLKGTLIAVWLRT	0.22
HMDFNNQLKRIRESNGLTQEQLAKILNVSRQSISSWEVGRNFPDLEMIVIISKEFNISLDQLIMG	-1.03
HMEQQVDYTQFIQDVRQGQIREVDVDRNGVINGIKRSGENFVTVIPGGYDRDLINDLVKQGVNATGEL	0.14
HMNQYRKLDGDVQNQIIYILSEYPKLPATIVYQRLLDTNTIVKKDVSLSTVNRFVQKYKDSKGIT	0.0672
HMDLDEELDFLSDADESATKLDLARAYIDMGDKDGARDILAEVLEEGRSEQKREAQALLDSI	-1.76
HMTQTGEVIRWDAERGFGFIATADGRRHVFFHVRDFRGGAAPGVGLRVGFEEIQVGGKGPRAMDVRPL	-0.491
HMPMTLGENIARLRTQKDWSQGDLADALGISRQSISKWETDTSIPELEKLIKLSELFGVTLDQLVRGE	-0.615
HMRNMRKLWIARINAAARMNDISYSKLMHGLKLANVEINRKMLSEMAIDDPKSFTALVETAKKALNG	0.303
HMNKTEIISILEKIVLPTQIRNINIFGSEVIIDLNIDNPSLHAKKKLEKSIINSFDKNHKIIINFNVE	-0.514
HMAMYSREKLKKLREDRGLTQYELAKIAGISVVTLNKIESSDSAKPFVKTLNKIAQALGVGIDELS	≥ 0.43
HMVKSIDEIYNEAVKSLANEDYDAAKKLFNYLINNFSDPDKFPLSLFWLAEIEFSSSNFDASKNYYMQ	-0.225
HMEDFDLSDTERKIIAQIGHGYSNKEIAQKLGFSEGTIRNYLSVILDKLDLRDRTQLAIWYLSR	-0.229
HMKGHQASTTWISERVKDIIKEDPTLGARKLQKRLEIHYNIELSYFKVWSGKNLQWMIFMVL	0.00439
